Experimental data as given in the NTF2 design screens of Basanta et al. (2020).

assay: protease stability score; higher = more stable; yeast display proteolysis, trypsin and chymotrypsin;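 note: log10 excess protease needed over predicted unfolded state with 0 meaning unfolded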

Point of comparison: “DEEINKQIRTMIESRTHGDEEDELRNADPNAKFRIGDKDYHGKEELKKWVKTQHDQAHVEFIIRSVRVHGNKVSMDMQVVLNVNGRPETIDASMSAEVDNGRFKRIDIHLDPDRVRTALQ”, protease stability score 1.16. Against it:
- DEEEKAEHVADEVRHALKRGDEDRLMNLMDENVRVEVGDKTIHGREEVRKELHRISKDFDHVDAKVKSIKVTNGNVIIIMDVKQNVNGRTRRFEVSMILDVKGDKARIQHIKND — lower, 1.11
- DEEELRQAMKVVKTNDPDNLRKLMDENVRVQVGNKVYHGREEAEKWLERMRKQIDHVNVRRVQIQGDRIVVEMEVTVNGKTIEATLHAKLHNGSLKSLRVEATSEKEKEKIEEANK — lower, 0.93
- DEKETKKVLERIVKIFENGNAEEAKKMGKEDVEVEYGDETKHGPDALYEFIEKMKKLGAKVEYKEVHVEGDKVTVRIQADYGGRRAEMHVTYQATGNRVDNVKLKYSKTAQEMIKHG — lower, 0.084
- DETKQAERVAETEKRIWERGDPDKLNEMFDPNVRIDVGDKEVNGREKLKEYIERILTQVDHVRLNFTSISVHNGSVELKYTLVREDNGRRRRDTFVIHMELHNGQARVTSVRRG — lower, 0.405
- DEKKKAEEQHKKLEHALREGDPDEAKKMMDPNVRAQVGETKFHGREQMAKFWMTFNKRADHVEFELRDLHIENGRIRIHAVVRADVNGQTVRINIRIILTKHGDQFVAVRIEQK — lower, 0.499
- DEDDRRRQARKLASALVTGNHQEVRELADKDVHAEYGDRRYRGREKLDEAAKDMHKQADSLTVRDVKFTGDKVNIDLQLNINGRRLTVSLTAQLENGRFKEIVVQVTDPETLRHVKQ — lower, -0.03
- DEEERSKLAERLVKAVQNNDEDSLLDNIDKNARVVVGEKTYHGRENARHAMQQFDEDVDHLQVRTFEVHGEHIRIQFEVNINGHTHTVVLDAEVKNGKLTDVKFDPDDMRKATS — lower, 0.14
- DEEVVHDLENQFRKNNWEEFARQADENAKVNIGEFEISGRSQIEEWAHRVKKQVDHIDVKHVSYDEDHLRMRVVVVVNGRKFDFEVIINVSNGEVKHMEVRFRDPSQETEWLNQIN — higher, 1.61
- DEDEATKVATNMQEILETGNPDEAAKLADKDVRVVVGDKDVHGSENLKDMMRELRERADHLRVVDMHSHGEKFVLLVIIEHNGRRHQVNIVMTIDNGRIKSLSITSG — higher, 1.87
- DEEELKDVLKKFSKNDEDFFKDLADKDARAVYGDKEVHGREEMSDLWRILKEQVDHMHINHMKLQGDRIVVDFTMTINGQEYVNVQELKFQNGKLQEVVVKVTDEEQMKRLLKIEK — lower, 0.298
- DEEQTLRERFNTLKRAQDHNDEEDLRRMMDENVKVRIGDEDVHGRETANEQFARMLRRVDHVRLRLKTMHVHGEKYQFRFELQLTVNGRHEHRDVRIRFDNVNGRTNIVEMEVG — lower, 0.35
- DEKDEAVKLLEHLMEALRRGDEDHARSLADPNVRADIGDRDYSGRNKVAQEWIRRATQADHLELRIRDVRVDGNEVTLEAELSMKVNGETHSDTVHFQFEKHNGRVVLVHVQFK — higher, 1.56
- EDRQNQEVNKKAQKGDWQHLRELADKDVTLQVGDKQYHGREKFQELLKKLETSVDRFKVDSITFHNGKVKVRAQAVVNGQKIEFVIIITFHNGRAKSMRIQARDEDLEKELLKMLS — lower, 0.944
- EESLIRLATLFMRAMETGDPKQANDLVDPNARFKIGDSVINGRERFNEWLKDLKEEMSVHYRVEHMHAEGDRVEVDFVVVYNVDGRPQRMRVKLEADLSNGRMRNVTLRFPSEEEKKIKK — lower, 0.525
- DEELERQFHEFLKALETNDPHRMRQLVDPNARIRVGDKRYHGMEEYAKDVVKKMEEARVSIDIKSIEVQGNHFVVEHEITRDQNGKPKTHRQRMFFTVKNGKVKEMQIEDQK — lower, 0.596
- DHEEVRQYEDAVEAEETGDKEKLQRYMDPNVKFHVGDKTLHGREDVARKQKEDRERIRIRYKSMDIKVRGDKVDFKMSFVVNHNGRPQRETRTFTIDLHNGTFKHADWKESG — lower, -0.014
- DERAEELLQRWMDAQRTGNPDEFVKLLDPNARYVVGDKEIHGSEQFKTHWQRQQDEMNVKVDVEDVKFSGNKISVRFHIEVDVNGRPLTDTATATWDLHNGRIKRQVYHLDPEFLRQVDS — lower, 0.936
- DKNNLKRYDKLLKILQTGDEHKAKKLADPNVKVKVGDKEIKGWDRFVHESAKRWREARIELKIKHVDVSGDKVTIDYEAEVEVNGKPIRYTATFRFVVHNGRIKTINFSMDENQRETVKR — lower, 0.007
- EEQVRELLRKALEAKQEGDEKKLTKLFDPNAKVDVGDKTFHGMEDIARTIVTELKQIRVRLEIKHYSMRGDHLRVDAEVEEEHNGEPQTRRVIIYMHVQGDKITKQKIEDRQ — lower, 1.08
